Drawing on paper PMC2360737, this text covers percent of CDK2/cyclin E complex bound and fold of cyclin E co-precipitated with p21 against that with p27 for one substance.

The target in assay [1] is p27 (human (endogenous in A2780)) (UniProt P46527). Nature of the assay: co-IP; endogenous proteins in crude lysates of A2780 cells, untreated or treated with 0.6 uM DAP (up to 36 h; also after control or p21 siRNA); immunoprecipitated with anti-CDK4, anti-CDK2, anti-p21 or anti-p27 antibody, immunoblotted. (In general: A western blot detects proteins with antibodies after separation by electrophoresis.)

For assay [2], the target named is p21 (human (endogenous in A2780)) (UniProt P38936). The description is as above.
Chain of UniProt P38936 (P38936 whole entry): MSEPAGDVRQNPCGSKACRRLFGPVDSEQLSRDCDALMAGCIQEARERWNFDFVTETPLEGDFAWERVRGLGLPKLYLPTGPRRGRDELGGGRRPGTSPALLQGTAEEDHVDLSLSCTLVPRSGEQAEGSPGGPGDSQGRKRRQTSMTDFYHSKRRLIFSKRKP

Chain of cyclin E (P24864 whole entry): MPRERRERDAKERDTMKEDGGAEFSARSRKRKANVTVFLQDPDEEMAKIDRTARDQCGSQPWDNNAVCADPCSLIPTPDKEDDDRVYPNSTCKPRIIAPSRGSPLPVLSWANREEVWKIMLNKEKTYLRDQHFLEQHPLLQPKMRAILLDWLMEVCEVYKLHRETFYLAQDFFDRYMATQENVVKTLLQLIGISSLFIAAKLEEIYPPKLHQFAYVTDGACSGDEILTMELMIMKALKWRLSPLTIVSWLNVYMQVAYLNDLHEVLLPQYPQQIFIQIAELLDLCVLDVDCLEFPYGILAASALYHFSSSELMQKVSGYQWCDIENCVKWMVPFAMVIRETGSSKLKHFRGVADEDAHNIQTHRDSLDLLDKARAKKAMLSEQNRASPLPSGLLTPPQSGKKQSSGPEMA
Chain of UniProt P46527 (P46527 whole entry): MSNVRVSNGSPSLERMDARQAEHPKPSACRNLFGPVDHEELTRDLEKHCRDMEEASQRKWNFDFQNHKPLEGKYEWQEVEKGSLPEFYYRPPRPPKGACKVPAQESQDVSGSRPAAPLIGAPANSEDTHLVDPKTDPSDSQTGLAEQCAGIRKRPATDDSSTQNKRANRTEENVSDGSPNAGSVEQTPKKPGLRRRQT

In assay [1], “cyclin E (from UniProt P24864 1-410) (natural protein)” registered a percent of CDK2/cyclin E complex bound of 25%. In assay [2], this substance gave a fold of cyclin E co-precipitated with p21 against that with p27 of 3 fold and a percent of CDK2/cyclin E complex bound of 75%.
